# Reference: the RNAGym collection of RNA variant scans (doi:10.7554/elife.80360)
# B1: HDV Ribozyme (parent)
# chain: GGCCGGCAUGGUCCCAGCCUCCUCGCUGGCGCCGGCUGGGCAACAUUCCGAGGGGACCGUCCCCUCGGUAAUGGCGAAUGGGACCCA
# Variants of: B1
# Assay: self-cleavage, relative activity (ratio to wild type); higher = more cleavage; co-transcriptional
row,Variant,self-cleavage
1,C48U A77C,0.57
2,G10C U60G,0.95
3,U37G U69A,0.119
4,U37C G38U,0.0773
5,G29C G39C,0.277
6,U37C G52A,1.25
7,C4A G39A,0.119
8,G11C C33U,0.256
9,G50C A70C,0.517
10,G11A A42U,0.158
11,U9C C22U,0.727
12,A8G C84G,0.396
13,C4G C26G,0.306
14,G17U A43C,0.203
15,C4A G5A,0.13
16,A78C C85U,0.0923
17,G54A G81C,0.26
18,G2U G31A,0.0578
19,G2A U47A,0.0314
20,G2U A77G,0
21,A78G U79G,0.268

row,Variant,self-cleavage
1,G40U C86U,0.688
2,G59U U79G,0.692
3,U37A G73C,0.0378
4,G50C C86A,0.929
5,U9C G52C,1.02
6,G40U C62U,0.872
7,C24G A70U,0.0627
8,G34A C64A,0.128
9,C32A G76A,0.214
10,G5U C66U,0.677
11,A43C C64U,0.391
12,G29A G40A,0.237
13,C86U A87G,0.942
14,U23C G59C,1.26
15,C26U U37A,0.462
16,C4U G11C,0
17,C4G A83U,0.136
18,C32U C44A,0.243
19,U20G G50C,0.138
20,C18U C36G,0.142
21,C58U C66A,1.22

row,Variant,self-cleavage
1,C7G U60C,0.383
2,G73C A87U,0.626
3,C13A A71U,0.0615
4,G2U C84U,0.0604
5,G54C U79G,0.475
6,G11U A77G,0.283
7,C36A C44G,0.125
8,G25C A71C,0.0475
9,C49U A87C,1.05
10,C7A C66G,0.243
11,C64A U65A,0.895
12,A42C C63A,0.277
13,G17U G38A,0.0755
14,G1C G55A,0.106
15,G10U C61A,0.665
16,G29A G55U,0.168
17,G5U U37C,0.519
18,C26G G52A,0.867
19,G25A A83G,0.151
20,C24U G55A,0.869
21,U23A A43U,0.481

row,Variant,self-cleavage
1,G11U U47C,0.156
2,C57A G67C,1.05
3,C61A G82U,0.507
4,G11U G53C,0.284
5,U12A G39U,0.0489
6,G1A G2U,0.852
7,C24G A71C,0
8,C41U G76A,0.95
9,C7A U60C,0.712
10,G38U A42U,0.261
11,C19U,0.152
12,A8U C33A,0.185
13,G52U U79A,0.759
14,C4G U65A,0.525
15,G50A U65C,0.769
16,A8C A42G,0.462
17,G1A C41U,0.237
18,C21U G31A,0.142
19,C24U G29U,0.0594
20,G52C C66G,0.672
